{
  "source": "paper PMC3841738",
  "about": "(Genes & Development, 2013)",
  "target": "the molecule itself",
  "assay": "SAXS",
  "data": [
    {"protein": "NtrC1 ATPase domain (Aquifex aeolicus) (domain or fragment) LRKENELLRREKDLKEEEYVFESPKMKEILEKIKKISCAECPVLITGESGVGKEVVARLIHKLSDRSKEPFVALNVASIPRDIFEAELFGYEKGAFTGAVSSKEGFFELADGGTLFLDEIGELSLEAQAKLLRVIESGKFYRLGGRKEIEVNVRILAATNRNIKELVKEGKFREDLYYRLGVIEIEIPPLRERKEDIIPLANHFLKKFSRKYAKEVEGFTKSAQELLLSYPWYGNVRELKNVIERAVLFSEGKFIDRGELSCLVNSK", "values": [
      {"measurement": "stoichiometry N", "value": 7}
    ]}
  ]
}
